In patent US20030091594A1 (University of Pennsylvania, published 2003):

B1: human CXCR4 (receptor)
chain: MEGISIYTSDNYTEEMGSGDYDSMKEPCFREENANFNKIFLPTIYSIIFLTGIVGNGLVILVMGYQKKLRSMTDKYRLHLSVADLLFVITLPFWAVDAVANWYFGNFLCKAVHVIYTVNLYSSVLILAFISLDRYLAIVHATNSQRPRKLLAEKVVYVGVWIPALLLTIPDFIFANVSEADDRYICDRFYPNDLWVVVFQFQHIMVGLILPGIVILSCYCIIISKLSHSKGHQKRKALKTTVILILAFFACWLPYYIGISIDSFILLEIIKQGCEFENTVHKWISITEALAFFHCCLNPILYAFLGAKFKTSAQHALTSVSRGSSLKILSKGKRGGHSSVSTESESSSFHSS
notes: whole, on cells
B2: human CCR5 (receptor)
chain: not shown
notes: whole, on cells

Assays:
[1] = biological target: T1, HIV-1/IIIB (HXBc2) gp120 pre-incubated with soluble CD4 (HIV-1); assay: 125I-gp120 binding to transfected 293T cells, with sCD4
T1 construct: also called HXB/CD4; HIXB/CD4

[2] = biological target: T1, HIV-1/IIIB (HXBc2) gp120 pre-incubated …; assay: cell-surface binding of 125I-gp120 with sCD4 to 293T cells transfected with CCR5

Row | Binder | binding result [1] | binding result [2]
1 | B1 | binds | –
2 | B2 | – | no binding
